Data reported in the supplement of paper PMC9732359.
± gives the uncertainty stated by the source.

Experiment: protein stability index of a GFP-peptide fusion (yeast GPS) (PSI 1-4); higher = more stable; sorted into four equal gates, so the index is relative within each strain
Summary of the method: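 Peptides tiling yeast proteins in 17-residue segments were fused downstream of GFP, with Cherry expressed from the same plasmid. As a pooled library in yeast, mid-log cultures grown in leucine-free medium were sorted into four equal gates by GFP/Cherry fluorescence ratio. Gate plasmids were PCR-amplified and Illumina-sequenced, and barcodes linked reads to strains. Each peptide received a protein stability index equal to the sum of each gate's read frequency times its gate number.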

Row | Sequence | protein stability index (doa10∆) | protein stability index (pdr5∆) | protein stability index (san1∆) | protein stability index (ubr1∆)
1 | NQTIKEAKDAIIELENI [YIL149C/MLP2] | 3.02 ± 0.061 | 3.2 ± 0.07 | 3.06 ± 0.052 | 2.89 ± 0.065
2 | FVFQTVFDTAITSWYEN [QCR9] | 1.66 ± 0.054 | 1.6 ± 0.039 | 1.74 ± 0.077 | 1.97 ± 0.044
3 | VPNYEVSEKAFLLTQSK [RPN7] | 3.17 ± 0.18 | 3.47 ± 0.24 | – | 2.75 ± 0.14
4 | SVFKGGMQNLIKKKKKK [SRP14] | 2 ± 0.18 | 3.05 ± 0.3 | – | –
5 | SRTAADILLRLCVLWDD [YCG1] | 2.23 ± 0.24 | – | – | 3 ± 0.24
6 | VNTMGTGGQTIDNGTGR [MED6] | 3.27 ± 0.14 | 3.06 ± 0.24 | 3.19 ± 0.077 | 3.19 ± 0.073
7 | SIEVQSLPEFFTNRIPS [SWI3] | 2.64 ± 0.055 | 2.66 ± 0.048 | 2.51 ± 0.064 | 2.61 ± 0.047
8 | PVLKKKAAFLGSEVRLR [COR1] | 2.91 ± 0.074 | 3.16 ± 0.071 | 2.97 ± 0.07 | 3.3 ± 0.078
9 | ELLNADHQHILRKLKKM [RPC53] | 1.13 ± 0.059 | 1.24 ± 0.063 | 1.11 ± 0.15 | 1.28 ± 0.046
10 | SHGNPVVDFLKRNGSTL [FAS1] | 3.02 ± 0.052 | 3.17 ± 0.049 | 3.1 ± 0.043 | 3.11 ± 0.038
11 | PNLLFSMCGFEVRILPR [PRP8] | 2.41 ± 0.051 | 1.9 ± 0.047 | 2.25 ± 0.055 | 2.27 ± 0.046
12 | NVVNYLSINKNFINQED [RPC17] | 1.39 ± 0.071 | 1.83 ± 0.061 | 1.55 ± 0.079 | 1.61 ± 0.045
13 | KMATDNKINSRNSWNFA [BRN1] | – | 2.94 ± 0.12 | – | 1.92 ± 0.12
14 | DTYPYLTGEWSTKFDYP [FAS1] | 3.19 ± 0.073 | 2.96 ± 0.079 | 2.85 ± 0.063 | 2.94 ± 0.057
15 | ENELFNDRKQTTVSNDL [SSN2] | 2.74 ± 0.16 | 3.14 ± 0.079 | 3.11 ± 0.06 | 3.02 ± 0.081
16 | IVGKKIQEFLVVIEKRR [GRR1] | 3.23 ± 0.098 | 2.9 ± 0.098 | 3.29 ± 0.073 | 3.12 ± 0.055
17 | KLLFDHDELDMNECIAD [ESC2] | – | – | 1.03 ± 0.22 | –
18 | KFNNGVVIAADTRSTQG [PUP1] | 1.6 ± 0.066 | 2.4 ± 0.13 | 2.2 ± 0.2 | 2.7 ± 0.095
19 | SRHFASYANLPGTITHG [FAS1] | 2.75 ± 0.059 | 2.82 ± 0.055 | 2.57 ± 0.055 | 2.71 ± 0.039
20 | TAVLSTTARAKARAKKT [RPN2] | 3.31 ± 0.11 | 3.17 ± 0.077 | 3.15 ± 0.075 | 3.19 ± 0.072
21 | LSTLPAGKSLVSKSEPK [QCR2] | 2.95 ± 0.17 | 3.27 ± 0.1 | 2.68 ± 0.11 | 3.44 ± 0.14
22 | ELGTAVGKLFRVGVVSI [RPL30] | 1.31 ± 0.13 | 1.17 ± 0.1 | 1.27 ± 0.23 | 1.29 ± 0.095
23 | SKLKEEEAALLIKERQE [ESC2] | 2.85 ± 0.074 | 2.88 ± 0.065 | 2.83 ± 0.043 | 2.9 ± 0.054
24 | VLEDCRHLPMYTEFIDS [ITC1] | 2.34 ± 0.1 | 2.71 ± 0.075 | 2.77 ± 0.12 | 2.99 ± 0.066
25 | PETCLFVSYFGKQIKST [YML103C/NUP188] | 2.61 ± 0.051 | 2.45 ± 0.039 | 2.27 ± 0.062 | 2.64 ± 0.037
26 | YGITHGLTNWAAAYATG [RPL5] | 2.17 ± 0.086 | 2.43 ± 0.067 | 2.28 ± 0.09 | 2.26 ± 0.056
27 | FAQENSELAVATTSVMM [SRB6] | 2.82 ± 0.13 | 3.13 ± 0.14 | 3.13 ± 0.07 | 3.33 ± 0.11
28 | FATTKAECISLICSIGL [ECM29] | 1.5 ± 0.059 | 1.97 ± 0.056 | 1.65 ± 0.13 | 1.77 ± 0.05
